# B1: Mab #25 (antibody, V domains shown)
# VH: EVQLVESGAEVKKPGESLKISCKGSGYTFTRYWIGWVRQMPGKGLEWMGIIYPGDSDTRYSPSFQGHVTISADKSISTAYLQWNSLKASDTAMYYCARLPQYCSNGVCQRWFDPWGQGTLVTVSS
# VL: EIVLTQSPSSVSASVGDRVTITCRASQGISSWLAWYQQKPGKAPKLLIYAASSLQSGVPSRFSGSGSGTDFTLTISSLQPEDFATYYCQQGNSFPYTFGQGTNLEIK
# Biological target: Spike proteins of the wild-type Wuhan-Hu-1 strain and the D614G, B.1.1.7, B.1.351, P.1, B.1.526 and
# Assay: cell-based or functional assay
binder,measurement,value
B1,"IC50, infectivity assays using pseudoviruses",0.05 to 0.2 µg/mL

# — patent US20240400651A1
